Measurements from article PMC11551737, “Structural and functional insights into the interaction between the bacteriophage T4 DNA processing proteins gp32 and Dda” (Nucleic Acids Research, 2024).
Positions count from the first letter of the chain named. Numbers in names are those of the source.

Columns and labels:
wild-type Dda/dT20 = biological target: T1, wild-type Dda/dT20 (Enterobacteria phage T4, UniProt P32270); assay type: binding, bacteriophage T4; details: SPR, Biacore T200, 25°C; wild-type Dda/dT20 on NTA chip; average of three experiments
T1 construct: His-tag; made in house
Experimental: These experiments were conducted at 25°C using a Biacore 3000 optical biosensor (Cytiva). […] The chip was primed in chelating buffer (10 mM HEPES pH 7.4, 150 mM NaCl, 50 μM EDTA, 0.005% Tween20) and was preconditioned at 10 μl/min with three 60 s injections of wash buffer (10 mM HEPES pH 8.3, 150 mM NaCl, 350 mM EDTA, 0.05% Tween20) and one 60 s injection of chelating buffer before being charged with a 60 s injection of 500 μM NiCl2 in chelating buffer. […] Any remaining active sites were blocked by Tris molecules in the binding analysis buffer (20 mM Tris-acetate pH 8.0, 150 mM NaCl, 10 mM magnesium acetate, 3 mM potassium glutamate, 1 mM TCEP, 0.05% Tween20, 10% glycerol). […] The data were processed, double-referenced and analyzed using the software package Scrubber2 (version 2.0c, BioLogic Software). The equilibrium dissociation constants (KD) were determined using steady-state analysis, specifically an equilibrium affinity analysis to fit the data to a 1:1 (Langmuir) interaction model.
These experiments were conducted at 25°C using a Biacore T200 optical biosensor (Cytiva) and NTA chip sensor S series; Cytiva. […] Also, the data were analyzed using the Biacore T200 Evaluation software package (version 3.1).

[1] = biological target: bacteriophage T4 gp32 single-stranded DNA-binding protein, full length, His-tagged (bacteriophage T4) (UniProt P03695); assay: AUC; sedimentation velocity, 20°C, 42 000 rpm; 20 mM Tris pH 7.0, 200 mM NaCl, 0.5 mM EDTA, 5 mM β-mercaptoethanol; gp32 at 11.10 μM
gp32 His-tagged;Dda-K38A [2] = biological target: T2, gp32 His-tagged;Dda-K38A (bacteriophage T4;bacteriophage T4, UniProt P03695;P32270 1-301;1-439, |K38A); assay: gel filtration; complex stably formed; EMSA: 25 mM HEPES pH 7.5, 5 mM MgCl2, 0.1 mM EDTA, 2 mM 2-mercaptoethanol, 1 mg/ml BSA, 5% glycerol, 10 or 150 mM NaCl, room temperature (gel 4 C); gel filtration: 20 mM Tris-HCl pH 7.0, 200 mM NaCl (50 mM for crystallization), 0.5 mM EDTA, 5 mM 2-mercaptoethanol; details: protein: recombinant;recombinant; tags: N-terminal 6xHis;6xHis (stated for SPR); copies: 1;1; single strand
T2 sequence 1: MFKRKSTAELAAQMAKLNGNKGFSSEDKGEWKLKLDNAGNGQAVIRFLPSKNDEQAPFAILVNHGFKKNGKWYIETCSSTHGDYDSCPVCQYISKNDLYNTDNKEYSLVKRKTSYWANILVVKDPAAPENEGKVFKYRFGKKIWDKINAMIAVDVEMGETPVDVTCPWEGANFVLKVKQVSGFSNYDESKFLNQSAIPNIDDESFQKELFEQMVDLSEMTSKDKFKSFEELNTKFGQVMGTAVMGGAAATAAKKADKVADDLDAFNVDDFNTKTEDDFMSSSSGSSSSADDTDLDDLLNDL
T2 sequence 2: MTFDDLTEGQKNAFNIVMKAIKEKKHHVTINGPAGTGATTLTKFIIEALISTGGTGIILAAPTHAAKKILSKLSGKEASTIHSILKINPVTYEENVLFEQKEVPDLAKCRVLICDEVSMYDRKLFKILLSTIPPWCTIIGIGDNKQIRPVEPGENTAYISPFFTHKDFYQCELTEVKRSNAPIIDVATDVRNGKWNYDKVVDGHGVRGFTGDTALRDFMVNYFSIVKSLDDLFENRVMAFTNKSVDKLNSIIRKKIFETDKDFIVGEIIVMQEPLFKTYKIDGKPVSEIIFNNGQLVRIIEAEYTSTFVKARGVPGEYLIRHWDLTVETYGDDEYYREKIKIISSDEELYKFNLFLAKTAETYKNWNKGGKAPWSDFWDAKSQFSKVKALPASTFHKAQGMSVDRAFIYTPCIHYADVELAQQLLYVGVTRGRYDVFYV

[3] = biological target: T3, bacteriophage T4 helicase Dda, ATPase deficient mutant K38A (bacteriophage T4, UniProt P32270 1-439, K38A); assay: SPR; SPR analysis 1: Biacore 3000, 25°C; His-tagged Dda-K38A/dT20 immobilised on an NTA chip by capture-coupling (~5800 RU); peptides injected, 4-fold dilution series, maximum 100 μM; 20 mM Tris-acetate pH 8.0, 150 mM NaCl, 10 mM magnesium acetate, 3 mM potassium glutamate, 1 mM TCEP, 0.05% Tween20, 10% glycerol; steady-state fit, 1:1 model; details: both partners purified
T3 construct: Dda, SF1B helicase of bacteriophage T4, active site point mutant K38A; called His-tagged in SPR analysis 1; theoretical mass printed as 52 046 Da; also called Dda-K38A; Dda–K38A
T3 sequence: T2 sequence 2

[4] = biological target: T4, bacteriophage T4 helicase Dda, wild type (bacteriophage T4, UniProt P32270 1-439); assay: SPR; SPR analysis 2: Biacore T200, 25°C; wild-type Dda/dT20 immobilised on an NTA chip as in SPR analysis 1; peptides injected, 2-fold dilution series, 100 μM to 0.78 μM; steady-state analysis; details: both partners purified
T4 construct: Dda, SF1B helicase of bacteriophage T4, wild type; also called wild-type Dda
T4 sequence (looked up): T2 sequence 2 with A38K

[5] = biological target: T5, bacteriophage T4 helicase Dda, wild type (bacteriophage T4, UniProt P32270 1-439); assay: SPR; wild-type Dda bound to dT20
T5 chain: T2 sequence 2 with A38K

[6] = biological target: T6, bacteriophage T4 helicase Dda, wild type (bacteriophage T4) (UniProt P32270)
T6 sequence: T2 sequence 2 with A38K

[7] = biological target: T7, gp32 C-terminal peptide 248-270;Dda-K38A (bacteriophage T4;bacteriophage T4, UniProt P03695;P32270 248-270;1-439, |K38A); assay: crystal structure; 3.53 A; peptide contacts Dda; EMSA: 25 mM HEPES pH 7.5, 5 mM MgCl2, 0.1 mM EDTA, 2 mM 2-mercaptoethanol, 1 mg/ml BSA, 5% glycerol, 10 or 150 mM NaCl, room temperature (gel 4 C); gel filtration: 20 mM Tris-HCl pH 7.0, 200 mM NaCl (50 mM for crystallization), 0.5 mM EDTA, 5 mM 2-mercaptoethanol; details: tags: ;6xHis (stated for SPR); copies: 1;1; single strand
T7 sequence 1: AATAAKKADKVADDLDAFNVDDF
T7 sequence 2: T2 sequence 2

gp32 His-tagged;Dda-K38A [8] = biological target: T2, gp32 His-tagged;Dda-K38A; assay: gel filtration, SDS-PAGE and agarose gel; 200 mM NaCl; EMSA: 25 mM HEPES pH 7.5, 5 mM MgCl2, 0.1 mM EDTA, 2 mM 2-mercaptoethanol, 1 mg/ml BSA, 5% glycerol, 10 or 150 mM NaCl, room temperature (gel 4 C); gel filtration: 20 mM Tris-HCl pH 7.0, 200 mM NaCl (50 mM for crystallization), 0.5 mM EDTA, 5 mM 2-mercaptoethanol; details: protein: recombinant;recombinant; tags: N-terminal 6xHis;6xHis (stated for SPR); copies: 1;1; single strand
gp32 His-tagged;Dda-K38A [9] = biological target: T2, gp32 His-tagged;Dda-K38A; assay: crystal structure; Zn2+; 6 A crystals, Zn SAD; EMSA: 25 mM HEPES pH 7.5, 5 mM MgCl2, 0.1 mM EDTA, 2 mM 2-mercaptoethanol, 1 mg/ml BSA, 5% glycerol, 10 or 150 mM NaCl, room temperature (gel 4 C); gel filtration: 20 mM Tris-HCl pH 7.0, 200 mM NaCl (50 mM for crystallization), 0.5 mM EDTA, 5 mM 2-mercaptoethanol; details: protein: recombinant;recombinant; tags: N-terminal 6xHis;6xHis (stated for SPR); copies: 1;1; single strand
[10] = biological target: T8, gp32 non-His-tagged;Dda-K38A (bacteriophage T4;bacteriophage T4, UniProt P03695;P32270 1-301;1-439, |K38A); assay: crystal structure; Zn2+; 4.98 A; 11 nt visible in one complex, 9 nt (Dda only) in the other; EMSA: 25 mM HEPES pH 7.5, 5 mM MgCl2, 0.1 mM EDTA, 2 mM 2-mercaptoethanol, 1 mg/ml BSA, 5% glycerol, 10 or 150 mM NaCl, room temperature (gel 4 C); gel filtration: 20 mM Tris-HCl pH 7.0, 200 mM NaCl (50 mM for crystallization), 0.5 mM EDTA, 5 mM 2-mercaptoethanol; details: protein: recombinant;recombinant; tags: none;6xHis (stated for SPR); copies: 1;1; single strand
T8 sequence 1: T2 sequence 1
T8 sequence 2: T2 sequence 2

T1 sequence (P32270 whole entry): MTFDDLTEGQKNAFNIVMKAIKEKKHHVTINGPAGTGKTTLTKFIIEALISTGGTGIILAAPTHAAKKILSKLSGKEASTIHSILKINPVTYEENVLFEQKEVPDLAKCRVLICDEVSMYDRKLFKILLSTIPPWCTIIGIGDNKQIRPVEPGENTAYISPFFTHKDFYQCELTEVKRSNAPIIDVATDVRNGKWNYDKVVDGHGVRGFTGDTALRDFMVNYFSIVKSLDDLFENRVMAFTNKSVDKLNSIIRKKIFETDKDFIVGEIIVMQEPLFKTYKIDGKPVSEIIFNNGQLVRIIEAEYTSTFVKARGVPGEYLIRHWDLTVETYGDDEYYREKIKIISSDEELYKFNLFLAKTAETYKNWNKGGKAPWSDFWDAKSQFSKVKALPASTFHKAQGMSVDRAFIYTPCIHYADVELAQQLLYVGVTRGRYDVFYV

AATAAKKEDKVADDADAFNVDDF [A255E/L262A]
Rmax (wild-type Dda/dT20): 196 (+/- 12.6) RU

AATAAKKADKEADDLDAANVDDF [V258E/F265A]
Rmax (wild-type Dda/dT20): 115 (+/- 5.88) RU

bacteriophage T4 gp32 single-stranded DNA-binding protein, full length, His-tagged (from UniProt P03695 1-301) (natural protein)
stoichiometry N [1]: 2

TTTTTTTTTTTTTTTT (ssDNA) [dT16]
binding result (gp32 His-tagged;Dda-K38A [2]): binds

AATAAKKADKVADDLDAFNVDDFNTKTEDDFMS (peptide, UniProt P03695 248-280, looked up, source: synthetic peptide) [gp32 C-terminal peptide 248–280]
binding result [3]: binds

B1: gp32 C-terminus peptide encompassing residues 248–270 (peptide)
peptide: AATAAKKADKVADDLDAFNVDDF
notes: also called gp32 C-terminal peptide; source: synthetic peptide
binding result [4]: binds

B2: V258E/F265A mutant of gp32 peptide 248–270 (peptide, UniProt P03695 248-270, looked up)
peptide: AATAAKKADKEADDLDAANVDDF
notes: probably a synthetic peptide like those of SPR analysis 1; also called mutant peptide V258E/F265A
Kd [5]: 492 µM
fold less binding than the wild-type peptide 248–270 [4]: ~10 fold

B3: A255E/L262A mutant of gp32 peptide 248–270 (peptide, UniProt P03695 248-270, looked up)
peptide: AATAAKKEDKVADDADAFNVDDF
notes: probably a synthetic peptide like those of SPR analysis 1; also called mutant peptide A255E/L262A
Kd [5]: 504 µM
fold less binding than the wild-type peptide 248–270 [4]: ~10 fold

B4: gp32-B (21–301), gp32 that lacks the N-terminal region (domain or fragment)
chain: KGFSSEDKGEWKLKLDNAGNGQAVIRFLPSKNDEQAPFAILVNHGFKKNGKWYIETCSSTHGDYDSCPVCQYISKNDLYNTDNKEYSLVKRKTSYWANILVVKDPAAPENEGKVFKYRFGKKIWDKINAMIAVDVEMGETPVDVTCPWEGANFVLKVKQVSGFSNYDESKFLNQSAIPNIDDESFQKELFEQMVDLSEMTSKDKFKSFEELNTKFGQVMGTAVMGGAAATAAKKADKVADDLDAFNVDDFNTKTEDDFMSSSSGSSSSADDTDLDDLLNDL
amplitude of the product formation curve (fluorescein fluorescence) in the Dda-dependent DNA unwinding assay without annealing trap; 375 nM gp32, 25 nM wild-type Dda, 25 nM substrate [6]: 200000

TTTTTTTT (ssDNA) [dT8]
binding result [7]: binds

TTTTTTTTTTTTTTTTTTTT (ssDNA) [dT20]
binding result (gp32 His-tagged;Dda-K38A [8]): binds

AATAAKKADKVADDLDAFNVDDFNT (peptide, UniProt P03695 248-272, looked up, source: synthetic peptide) [gp32 C-terminal peptide 248–272]
binding result [3]: binds

NTKTEDDFMSSSSGSSSSADDTDLDDLLNDL [gp32 C-terminal peptide 271–301]
Kd [5]: 178 µM

TTTTTTTTTTTTTTTTT (ssDNA) [dT17]
binding result (gp32 His-tagged;Dda-K38A [9]): binds
binding result [10]: binds

B5: gp32-A (1–254), gp32 that lacks the C-terminal region (domain or fragment)
chain: MFKRKSTAELAAQMAKLNGNKGFSSEDKGEWKLKLDNAGNGQAVIRFLPSKNDEQAPFAILVNHGFKKNGKWYIETCSSTHGDYDSCPVCQYISKNDLYNTDNKEYSLVKRKTSYWANILVVKDPAAPENEGKVFKYRFGKKIWDKINAMIAVDVEMGETPVDVTCPWEGANFVLKVKQVSGFSNYDESKFLNQSAIPNIDDESFQKELFEQMVDLSEMTSKDKFKSFEELNTKFGQVMGTAVMGGAAATAAKK
amplitude of the product formation curve (fluorescein fluorescence) in the Dda-dependent DNA unwinding assay without annealing trap; 375 nM gp32, 25 nM wild-type Dda, 25 nM substrate [6]: 86000

B6: full-length gp32 variant A255E/L262A (natural protein)
chain: T2 sequence 1 with A255E, L262A
amplitude of the product formation curve (fluorescein fluorescence) in the Dda-dependent DNA unwinding assay without annealing trap; 375 nM gp32, 25 nM wild-type Dda, 25 nM substrate [6]: 130000

B7: full-length gp32 variant V258E/F265A (natural protein)
chain: T2 sequence 1 with V258E, F265A
amplitude of the product formation curve (fluorescein fluorescence) in the Dda-dependent DNA unwinding assay without annealing trap; 375 nM gp32, 25 nM wild-type Dda, 25 nM substrate [6]: 87000
